Laboratory results published in US20120315284A1 (KOREA RESEARCH INSTITUTE OF BIOSCIENCE AND BIOTECH, published 2012).

T1: MKK7 in cell lysate (immunoprecipitated with MKK7 antibody; the cells' own MKK7) (human, UniProt O14733 2-419, limits assumed)
T1 sequence: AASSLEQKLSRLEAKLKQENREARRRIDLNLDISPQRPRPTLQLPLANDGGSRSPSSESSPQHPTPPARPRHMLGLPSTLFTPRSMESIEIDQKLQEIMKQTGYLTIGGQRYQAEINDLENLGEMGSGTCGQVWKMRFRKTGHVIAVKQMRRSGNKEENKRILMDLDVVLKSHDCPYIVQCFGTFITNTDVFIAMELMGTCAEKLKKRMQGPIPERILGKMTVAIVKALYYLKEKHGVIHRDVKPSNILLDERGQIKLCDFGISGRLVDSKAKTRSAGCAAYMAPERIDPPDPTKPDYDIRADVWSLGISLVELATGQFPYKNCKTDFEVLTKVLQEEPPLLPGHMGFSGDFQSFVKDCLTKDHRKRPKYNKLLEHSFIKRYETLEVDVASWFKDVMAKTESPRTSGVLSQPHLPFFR

T2: MKK7 fragment D1 (pGST vector, HEK293T) (human, UniProt O14733 85-419, limits assumed)
T2 construct: also called MKK7-D1; not shown: GST tag of the pGST expression vector
T2 sequence: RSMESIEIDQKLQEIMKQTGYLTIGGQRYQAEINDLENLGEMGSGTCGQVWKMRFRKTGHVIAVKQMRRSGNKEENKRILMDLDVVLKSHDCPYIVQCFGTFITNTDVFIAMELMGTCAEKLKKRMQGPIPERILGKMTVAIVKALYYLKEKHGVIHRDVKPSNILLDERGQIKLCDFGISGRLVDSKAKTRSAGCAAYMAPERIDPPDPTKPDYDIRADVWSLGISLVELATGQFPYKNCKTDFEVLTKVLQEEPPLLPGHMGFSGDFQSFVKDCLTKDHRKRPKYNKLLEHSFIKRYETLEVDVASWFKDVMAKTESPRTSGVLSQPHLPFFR

T3: MKK7 (full length MKK7 expressed from the pGST vector in HEK293T cells) (human, UniProt O14733 1-419)
T3 construct: also called full length MKK protein; not shown: GST tag of the pGST (pEBG) vector
T3 sequence: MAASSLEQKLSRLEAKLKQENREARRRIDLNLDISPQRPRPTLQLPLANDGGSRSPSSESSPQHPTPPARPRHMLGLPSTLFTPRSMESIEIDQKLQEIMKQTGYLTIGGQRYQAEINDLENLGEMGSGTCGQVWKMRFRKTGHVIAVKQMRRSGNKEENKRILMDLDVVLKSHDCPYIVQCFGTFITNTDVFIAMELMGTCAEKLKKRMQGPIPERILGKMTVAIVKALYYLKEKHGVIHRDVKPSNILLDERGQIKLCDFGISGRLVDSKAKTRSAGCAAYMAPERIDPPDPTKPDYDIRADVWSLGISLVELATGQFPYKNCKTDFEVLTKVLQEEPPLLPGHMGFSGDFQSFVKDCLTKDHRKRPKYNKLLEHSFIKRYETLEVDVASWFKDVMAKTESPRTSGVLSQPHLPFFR

B1: TIP41 (full length TIP41 protein expressed from the pHA vector in HEK293T cells) (other)
chain: MMIHGFQSSHRDFCFGPWKLTASKTHIMKSADVEKLADELHMPSLPEMMFGDNVLRIQHGSGFGIEFNATDALRCVNNYQGMLKVACAEEWQESRTEGEHSKEVIKPYDWTYTTDYKGTLLGESLKLKVVPTTDHIDTEKLKAREQIKFFEEVLLFEDELHDHGVSSLSVKIRVMPSSFFLLLRFFLRIDGVLIRMNDTRLYHEADKTYMLREYTSRESKISSLMHVPPSLFTEPNEISQYLPIKEAVCEKLIFPERIDPNPADSQKSTQVE
notes: Cloned from liver cancer cell RNA into pHA; also called TIPRL; TOR Signaling Pathway Regulator-Like; not shown: HA tag of the pHA vector (pcDNA3.1 with HA tag)

Experiments:
[1] = molecular target: T1, MKK7 in cell lysate (immunoprecipitated …); experiment: immunoprecipitation (legend of FIG. 11B)
Protocol: In order to identify interaction between TIP41 and MKK7, each antibody was used to perform immunoprecipitation, and binding between TIP41 and MKK7 was identified with Western Blotting. Immunoprecipitation is done by adding about 2 μg antibody of protein to be precipitated into 1 mg cell lysate and reacted for about 2 hours in about 4° C., and add about 30 μl Protein G sepharose bead into each and react for about 12 hours in about 4° C. Afterwards, about 1 ml PBST[0.1% Tween20 included PBS] buffer was added for washing, and the procedure was repeated for about 4 times. Then 100 μl 1× sample buffer (for Western Blotting) was added into the washed bead, and then it was boiled for about 5 minutes in about 95° C. heating block, and was cooled in ice for about 2 minutes. Afterwards, Western Blotting was performed using MKK7 and TIP41 antibody.

[2] = molecular target: T2, MKK7 fragment D1 (pGST vector, HEK293T); experiment: GST pull-down from HEK293T lysate, Western blot
[3] = molecular target: B1; experiment: GST pull-down from HEK293T lysate, Western blot
[4] = molecular target: T3, MKK7 (full length MKK7 expressed from …); experiment: GST pull-down from HEK293T lysate, Western blot

binding result [4] | Binder | further results
 | TIP41 in cell lysate (immunoprecipitated with TIP41 antibody; the cells' own TIP41) (other, also called TIPP41) MMIHGFQSSHRDFCFGPWKLTASKTHIMKSADVEKLADELHMPSLPEMMFGDNVLRIQHGSGFGIEFNATDALRCVNNYQGMLKVACAEEWQESRTEGEHSKEVIKPYDWTYTTDYKGTLLGESLKLKVVPTTDHIDTEKLKAREQIKFFEEVLLFEDELHDHGVSSLSVKIRVMPSSFFLLLRFFLRIDGVLIRMNDTRLYHEADKTYMLREYTSRESKISSLMHVPPSLFTEPNEISQYLPIKEAVCEKLIFPERIDPNPADSQKSTQVE | binding result [1]: binds
 | B1 | binding result [2]: no binding
 | MKK7 fragment D5 (pGST vector, HEK293T) (other, also called MKK7-D5; not shown: GST tag of the pGST expression vector) AGCAAYMAPERIDPPDPTKPDYDIRADVWSLGISLVELATGQFPYKNCKTDFEVLTKVLQEEPPLLPGHMGFSGDFQSFVKDCLTKDHRKRPKYNKLLEHSFIKRYETLEVDVASWFKDVMAKTESPRTSGVLSQPHLPFFR | binding result [3]: no binding
no binding | TIP41 fragment D4 (pHA vector, HEK293T) (other, also called TIP41-D4; not shown: HA tag of the pHA vector) MLKVACAEEWQESRTEGEHSKEVIKPYDWTYTTDYKGTLLGESLKLKVVPTTDHIDTEKLKAREQIKFFEEVLLFEDELHDHGVSSL | 
no binding | TIP41 fragment D2 (pHA vector, HEK293T) (other, also called TIP41-D2; not shown: HA tag of the pHA vector) MMIHGFQSSHRDFCFGPWKLTASKTHIMKSADVEKLADELHMPSLPEMMFGDNVLRIQHGSGFGIEFNATDALRCVNNYQGMLKVACAEEWQESRTEGEHSKEVIKPYDWTYTTDYKGTLLGESLKLKVVPTTDHIDTEKLKAREQIKFFEEVLLFEDELHDHGVSSLSVKIRVMPSSFFLLLRFFLRIDGVLIRMNDTRLYHEADKTYMLREYTSRESKISSLMHVPPS | 
no binding | TIP41 fragment D5 (pHA vector, HEK293T) (other, also called TIP41-D5; not shown: HA tag of the pHA vector) MMIHGFQSSHRDFCFGPWKLTASKTHIMKSADVEKLADELHMPSLPEMMFGDNVLRIQHGSGFGIEFNATDALRCVNNYQGMLKVACAEEWQESRTEGEH | 
no binding | TIP41 fragment D1 (pHA vector, HEK293T) (other, also called TIP41-D1; not shown: HA tag of the pHA vector) MMIHGFQSSHRDFCFGPWKLTASKTHIMKSADVEKLADELHMPSLPEMMFGDNVLRIQHGSGFGIEFNATDALRCVNNYQGMLKVACAEEWQESRTEGEHSKEVIKPYDWTYTTDYKGTLLGESLKLKVVPTTDHIDTEKLKAREQIKFFEEVLLFEDELHDHGVSSL | 
